This passage reports percent of reference results from PMC4402209.

This experiment has as its target KCTD12 (UniProt Q6WVG3). Briefly: anti-Rluc IP of Rluc-KCTD12, GB2 blot. The note with it: reference: GB2-WT, no 8-Br-cAMP; sites S892.

As for “GABAB2 (GB2) (from UniProt O88871) GB2-WT, 8-Br-cAMP 1 mM 30 min”, the percent of reference is 103%.
